Measured values from the domain aggregation screens of Martell et al. (2025).

assay: soluble fraction after stress (log2 fold change); higher = more stays soluble; pooled small domains, quantitative proteomics; details: stress: 75 degC
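Note: 20 min heating vs room temperature control held 20 min.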

Row | Sequence | soluble fraction (log2)
1 | HMNVAETITLGKRLFNHALTILGKKQRNISRKQLKNFLNDLGLKDSKDLYESIGTGDKNPILMAQLLLG | -0.512
2 | HMNVAVGNSKLVGVAGERAYFVNGVGAAARTLSLQVGDALPTGEKVRRIERDGVTMTGASGDVRLSVLP | 0.00812
3 | HMNVDALIGTKGIVVQPIRPFAVGQVKVNGQVWSAVGKTPETDIEQGREVKVHAIEGVKLVVTPT | 0.501
4 | HMNVDALVGMPARVTRAFVQGAGEVKLDNGETWTARLSAGVTDAEASVGQTVSVIAVRGAAVEVAPE | 0.0183
5 | HMNVDSLIGKKARVLEDIDNLNAKGQVSIDGMEWTARSEDGSEIKKDALVEVVAIEGVKAIVKQ | 0.242
6 | HMNVEQQNQARENIKRLMEEQGLSQPKLSEKAGIAFGTLSRILRGKQDLTIQTAEKIADALGLSVYDLAE | 0.31
7 | HMNVKVSVDDIARPGLMASGRVTFADGNRGMWYVDEMGRLGIDPEVEGYQPSEADIQAFQRELQSVMES | -0.00333
8 | HMNVNSQQINDLEKSIQKFFDKDIKNYLNQNLSNDRMISKNEIDKIILLYYGSDKEPTLDEIKSIFN | -0.216
9 | HMNVNTHKTLILNSTFQPLSLATPQRALALLFSKKINVLKESDIKLRSVGQSVAIPKVAVLTYFVKA | -0.409
10 | HMNVPFGYTIKDGLLVEQPDEKAILDNILTWKKGQMTVAEIAKKTGMETWKIYGILNYWRNK | -1.14
11 | HMNVRAYKVSKESELTVEEKLEAVRGYGVADLLYVIREFEENPGKYEPEVIKLIVQQLTDKGIM | 0.0392
12 | HMNVRRSRTHEKVTTYQGYDIFINKEPNQRGMFTSAPMRGDNEYSNLRGEGKSKQDAVNMTKEKIDEIAA | 0.748
13 | HMNVSVSITKELQVYINDERISSSALESTLKSKLAGIENPTIILRAEEGVPIEKAVNVMDIANRNRYKIVL | -1.32
14 | HMNVYAGTMINVVGLQVEDAASRLRGLFYSVKIVEEESQEPDGKVLRQNIAEGTKDLEAWTLVELTVSKYV | -2.73
15 | HMNVYEVKFGDTLDEIIKTYLFDIPVKKSILRQAVILANPHAFRRNNPHWMYSDRQLKLPELQDIRRAIF | -0.317
16 | HMNYGDVIEGQIMHVDRDELLVDIGSKSEGIIPAREFSTLTDEERAALSVGDHVLVFVVQAENQEGQAV | 0.297
17 | HMNYIEWKNTFKKYLYLLPIKEEKETLAYFDEQYNKLNPKDLDNVENIFSDPIDKAAFVVAFYLEMEDEIK | -0.895
18 | HMNYIGADAAKNMAAADAQVDTANASFSGANLGEKNGLSYYQVDFTANGREYHYAIDAMTGTVIESSSAAS | 0.122
19 | HMNYNEKGEYTRTLTSGSETAVMTYRNFGETLDVALFKNGVQTDSLRLIKSEPGVLYRQSNGQFEKI | -0.158
20 | HMNYSIVNVGFNNKSLFLRSAPGYSASRLLLPFATERAFVRETLSNGWSRVIVRGTEGYLPTEYVAD | 0.345
21 | HMNYSKQRETILKVLRSTRSHPSVNWIYENVKKEIPDVGLATVYRNLKQLEAAGEIMRIQGDFPEERWDGF | -1.65
22 | HMNYTALLNNFSENMKKRRVELSLSQKELASIVGVSVRTIQNYENKKTIPTSAVMESISIALDMGLEKMID | -1.91
23 | HMNYTQAQIDRANAVSLEDFLRTQGETLIKSGREYRWKEHDSLTVRGNKWFRHSQSKGGYPIDFVMEFTA | 0.108
24 | HMNYYYKDNQYWYVGFRYDERLVKEIKRFVGAGYNPENKEWYIPFTLPTVAPLQKWLHDNGFVEGMNYYP | -2.56
25 | HMPAAFALLTDREREIAALIAQRLTNREIAEKLYLSEGSVKQYVNQLYAKLGIEGDTRTKRRRLAEQAK | -0.641
26 | HMPAAKARTWQEATHAFQRDFLLETLRRARFNAADAADQLGLARPALYTTAKRLGLDLVAERQRWEAEAH | -0.668
27 | HMPAAPVFLQKDLLDAGLIGQADSAARREKLGKILGIGYGNGKVMLQRLNSFGIERDAFEQAVQE | 0.081
28 | HMPAASDALAGELAQIARLDIAKLLAGDLSEADWSRITSATVQLSERHPDASDELTALVERIDTAYSARAT | 0.0397

Row | Sequence | soluble fraction (log2)
29 | HMPAEGWEASGDTWRYRQKDGSYITNAWVQDTDGKWYYFDESSLMVRNQTTSDGYYVGEDGVWTET | -0.136
30 | HMPAELGVVVRNANLRSGPGTKYAIVGSAPAGTTVRIAGTNKAGDWYHLSSGRWIAAFLVDRN | -1.99
31 | HMPAERLSMRKIYEILRLKYGHGLSNREVALSVSVSRSTVADYLLRAQAAGLSWPLPDGLDETGLEQRLFP | -3.96
32 | HMPAFGALTLRQRDLVELIAQGLDNSQIAARLGLAEKTVRNHITMIFNKLEMENRSQVIVRARESGFGAVR | -1.87
33 | HMPAKIIKKSFVYNPIHRDTEYLAQFLQGEGQVSASGDKLVYYGTVEDISRIKSVLQSVDTPS | 0.169
34 | HMPALATKDSVLDGRAEVVSYVRDTSVFYLRVRVPQKQGYRSRRIDGVSTLPEAITKALDTYMDLGT | -2.6
35 | HMPALELLVESKKPLLIHGEKIAEDINLFDREKYFIDDELIRIVKEFPSLKIILEHVSSKYGAD | -2.18
36 | HMPAMYKAERMNQILSILADQGDVDVGTLARQFGVSLVTIRKDLTYLESSGQLVRTHGGAIAVA | -0.707
37 | HMPASVEYIRLAAEQMTGQQVTIIEQPGNYAFILRIHLNDIYSLDLAALRARIDELKPAHLTYTVEQYD | -2.86
38 | HMPATTMMVVVDRDLPYGHVLTDRDVRLETRRATSPGASVAFTSIDPVLGQSLTRPLGAGTPVGRADLR | -0.218
39 | HMPAVVEFDVKPRGEVLVDGIWYGRIPELREVELRPGRHHLRVQNAGHPSLDLVVTLEPGERMTVTHTFA | -0.529
40 | HMPDAENFRYRVPYTTEQNRLQYYEGDIRAENADKARDQVMQDAQKYFAQNTAFTPNYIDTDIISLD | 0.946
41 | HMPDFAENAVYGKQREDSLYAHAYKHFQLGDTTTVRAAEHLSAEIYPLGQHRPKFMFLNAVTR | 0.309
42 | HMPDITAAVARTLQALRADRGWSLDQLAARSGVSKGVLVALEQGRSNPNLATLARIGDAFGVPVTLLVDL | -1.45
43 | HMPDPHSEARNIVLNQLNFMPRSRKELETALAKRNIEADVAKIVLDRFEEIGMVDDAAYAEL | 0.121
44 | HMPDPLYLINGKIVNKSDFNNIDPRSIQSIEVLKANKALEAFGNDGKNGVIKITLKSSNDQM | -0.104
45 | HMPEEGPSEDGNSFTAKFKLGSDVQGAMEQADAAAKAGLQDAGKGTGQITSRAQVGGYIYSTATA | 0.142
46 | HMPEIFYRKIHRTDHDQIALDAEMIRLLIAIDEKKSLSQIAAEVQMEPMALKKNLGKLIQLGLVEPIK | -0.616
47 | HMPELSNNLDRDKVALKNFNESLKDGLTPAEAYANHLTNVSKAAQEAARQSNGLPVDIDKYHNSQLAASMA | 0.378
48 | HMPEMAIRTLRLRNQRGAAVAAEWSRITASLLELRQVEFVNPVDQLIVLKGPEPWAGVAEELVRQLDV | -2.55
49 | HMPEQLLNTRIPLEFAGRRFDASLAELFPDYSRSRLAAWIKDGAARLDGETVAPRHTVRGGEQVEILVRM | -0.729
50 | HMPERLTYVHPDGAEPMRADKALAAFLSGRISRSRLLGSFSAGKVMAGGKPVEKKLLLRAGDALEVELPEP | -0.239
51 | HMPERMLEPLLNGNEIMKVTQLQPGPKVGLIRDALLQAQISGDVTDTESAKAFVQDYAKRNI | 0.0453
52 | HMPESETIMVDVKGAVQSEGVYELPSTARVNDAIEAAGGFSDQADKKSVNLAQKLSDEAVVYVASQGENV | 0.76
53 | HMPEVTMSYSARNQVVSFSKATQYEIVDEFGTVVLRGVGNQATLRYLSRGDYFVNFGAGTEVLKK | -0.0464
54 | HMPEVYSFEVNEGAAGKRLDIFLSGEIEGLTRSFIQKLISEGMATVNQEPPRASYRVKTRDLVELQIPDPE | -0.334
55 | HMPFDWSAFDWKGWADEALAIIKTANQDQMNKWTEDNEKIIVQAETAAPDIYKTVGDEYDKKMESFN | 0.0145
